# Data from patent US20180185504A1 (Regeneron, published 2018).
# Positions count from the first letter of the chain named. Names and notes keep the numbering of the source.
# B1: H1H6976N (antibody, human IgG1, V domains shown)
# VH: EVQLLESGGGFVQPGGSLRLSCAASGFTFSSYAMSWVRQAPGKGLEWVSIISSNGRYTYYADSVKGRFTISRDNSKNTLYLQMNSLRAEDTAVYYCATVTGDWFDPWGQGTLVTVSS
# VL: DIQLTQSPSFLSASVGDRVTITCWASQDIDISLAWYQQKPGKAPKLLIYAASTLQSGVPSKFSGSGSGTDFTLTISSLQPEDFSTYYCQQLNSYPITFGQGTRLDIK
# notes: also called H2M6976N
# B2: H1H6958N2 (antibody, human IgG1, V domains shown)
# VH: QVQLVESGGGVVQPGRSLRLSCGASGFTFRNYGMQWVRQGPGKGLEWVTLISFDGNDKYYADSVKGRFTISRDNSKNTLFLQMNSLRTEDTAVYYCARGGDFDYWGQGTLVTVSS
# VL: DIQMTQSPSSLSASVGDRVTITCRASQDIRKDLGWYQQKPGKAPKRLIYAASSLHSGVPSRFSGSGSGTEFTLTISSLQPEDFATYYCLQHNSYPMYTFGQGTKLEIK
# notes: also called H2M6958N2
# B3: H1H6782P (antibody, human IgG1, V domains shown)
# VH: EVQLVESGGGLVQPGRSLRLSCAASGFTFDDYAMHWVRQAPGKGLEWVSGIIWNSGHIGYGDSVKGRFTISRDNAKKSLYLQMNSLRAEDTALYYCARDSGRYQSYFDYWGQGTLVTVSS
# VL: DIQMTQSPSTLSASVGDRVTITCRASHIISSWLAWYQQKPGKAPKVLIFKASSLESGVPSRFSGSGSGTEFTLTISSLQPDDFATYYCQQYNTYSRTFGQGTKVEIK
# notes: human IgG1 Fc (H1H)
# B4: H1H6785P (antibody, human IgG1, V domains shown)
# VH: EVQLVESGGGLVQPGGSLRLSCAASGFTFSSYEMNWVRQAPGKGLEWISYISSRGGTIYYADSIKGRFTIYRDNARNSLYLQMNSLRAEDTAIYYCARLSGVDIFDIWGQGTMVTVSS
# VL: DIQMTQSPSSLSASVGDRVTITCRASQGISNYLAWYQQKPGKVPKLLIYFASTLQSGVPSRFSGGGSGTDFTLTISSLQPEDVATYYCQRYNSAPLTFGGGTKVEIK
# notes: human IgG1 Fc (H1H)
# B5: H1H6781P (antibody, human IgG1, V domains shown)
# VH: EVQLVESGGDLVQPGESLRLSCTASGFTFNSYEMNWVRQAPGKGLEWVSYISSSGGTKYYVDSVKGRFTISRDNAKKSLYLQMNSLRADDTALYYCARLNGVDVFDIWGQGTMVTVSS
# VL: B4 VL with G28D, S30F, Y36F, K45E, Y49S, F50A, G65S, D70Y, V83I
# notes: human IgG1 Fc (H1H)
# B6: H1H6967N (antibody, human IgG1, V domains shown)
# VH: EVQLVESGGDLVHPGRSLRLSCAASGFPFDEYAMHWVRQVPGKGLEWVSGISWSNNNIGYADSVKGRFTISRDNAKNSLYLQMNSLRPEDTAFYYCAKSGIFDSWGQGTLVTVSS
# VL: EIVMTQSPATLSVSPGERATLSCRASQSVSRDLAWYQQKPGQAPRLLIHGASTRATGIPARFSGSGSGAEFTLIISSLQSEDFAVYYCQQYNNWPLTFGGGTKVEIK
# notes: also called H2M6967N
# Biological target: T1, hPRLR.mmh (soluble monomeric human PRLR) (human)
# T1 construct: soluble monomeric PRLR protein
# T1 chain: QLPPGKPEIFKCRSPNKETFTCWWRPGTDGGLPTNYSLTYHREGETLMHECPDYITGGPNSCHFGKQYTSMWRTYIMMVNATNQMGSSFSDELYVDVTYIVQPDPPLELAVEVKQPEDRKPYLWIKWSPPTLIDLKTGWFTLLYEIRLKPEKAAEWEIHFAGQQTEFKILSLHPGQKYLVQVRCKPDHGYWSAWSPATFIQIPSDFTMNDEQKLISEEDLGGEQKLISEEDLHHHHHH
# Experiment: SPR (Biacore), antibody capture, 37 C
# Method: (§1) Measurements were conducted on a T200 Biacore instrument. Kinetic association (kₐ) and dissociation (kd) rate constants were determined by processing and fitting the data to a 1:1 binding model using Scrubber 2.0 curve fitting software.
Binder,Kd,T 1/2,koff,kon
B1,4.04 nM,3.7 min,0.00314 s⁻¹,777000 M⁻¹ s⁻¹
B2,3.16 nM,8.8 min,0.00131 s⁻¹,413000 M⁻¹ s⁻¹
B3,1.28 nM,16 min,0.000716 s⁻¹,557000 M⁻¹ s⁻¹
B4,1.14 nM,24 min,0.000484 s⁻¹,426000 M⁻¹ s⁻¹
B5,0.91 nM,37 min,0.000309 s⁻¹,339000 M⁻¹ s⁻¹
B6,2.2 nM,12.4 min,0.000933 s⁻¹,424000 M⁻¹ s⁻¹

# Biological target: T2, hPRLR.mFc (soluble dimeric human PRLR) (human)
# T2 construct: dimeric PRLR construct
# T2 chain: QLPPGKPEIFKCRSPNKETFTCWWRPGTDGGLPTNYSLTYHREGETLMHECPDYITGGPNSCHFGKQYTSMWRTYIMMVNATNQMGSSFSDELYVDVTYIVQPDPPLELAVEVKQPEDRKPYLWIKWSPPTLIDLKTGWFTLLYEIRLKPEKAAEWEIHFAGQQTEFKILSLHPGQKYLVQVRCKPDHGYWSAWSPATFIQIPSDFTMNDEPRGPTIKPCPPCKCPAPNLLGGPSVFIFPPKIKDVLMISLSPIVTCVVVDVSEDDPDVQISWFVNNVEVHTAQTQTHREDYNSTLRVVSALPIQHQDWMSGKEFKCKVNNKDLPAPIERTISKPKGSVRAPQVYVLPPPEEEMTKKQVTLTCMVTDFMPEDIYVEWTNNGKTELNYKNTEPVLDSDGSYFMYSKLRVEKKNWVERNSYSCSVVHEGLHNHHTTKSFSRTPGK
# Experiment: SPR (Biacore), antibody capture, 37 C
# Method: as §1
Binder,Kd,T 1/2,koff,kon
B1,0.102 nM,82.6 min,0.00014 s⁻¹,1.37e+06 M⁻¹ s⁻¹
B2,0.167 nM,83.3 min,0.000139 s⁻¹,829000 M⁻¹ s⁻¹
B3,0.217 nM,89 min,0.00013 s⁻¹,598000 M⁻¹ s⁻¹
B4,0.256 nM,99 min,0.000117 s⁻¹,456000 M⁻¹ s⁻¹
B5,0.226 nM,117 min,9.84e-05 s⁻¹,436000 M⁻¹ s⁻¹
B6,0.107 nM,119 min,9.73e-05 s⁻¹,907000 M⁻¹ s⁻¹

# Biological target: T3, mfPRLR.mmh (soluble monomeric macaca fascicularis PRLR) (macaca fascicularis)
# T3 construct: soluble monomeric PRLR protein; also called macaca fascicularis (mf) PRLR.mmh; monkey PRLR
# T3 chain: T1 chain with I76V, A110T, I125M, I158T, T207I
# Experiment: SPR (Biacore), antibody capture, 37 C
# Method: as §1
Binder,Kd,T 1/2,koff,kon
B1,5.24 nM,3.7 min,0.00316 s⁻¹,603000 M⁻¹ s⁻¹
B2,4.08 nM,8.6 min,0.00134 s⁻¹,328000 M⁻¹ s⁻¹
B3,1.99 nM,15 min,0.000767 s⁻¹,385000 M⁻¹ s⁻¹
B4,1.52 nM,26 min,0.00045 s⁻¹,297000 M⁻¹ s⁻¹
B5,1.08 nM,43 min,0.000267 s⁻¹,247000 M⁻¹ s⁻¹
B6,4.54 nM,7.1 min,0.00162 s⁻¹,356000 M⁻¹ s⁻¹

# Biological target: T4, human PRLR construct with an HA tag on HEK293/hPRLR cells (human, UniProt P16471 25-622)
# T4 sequence: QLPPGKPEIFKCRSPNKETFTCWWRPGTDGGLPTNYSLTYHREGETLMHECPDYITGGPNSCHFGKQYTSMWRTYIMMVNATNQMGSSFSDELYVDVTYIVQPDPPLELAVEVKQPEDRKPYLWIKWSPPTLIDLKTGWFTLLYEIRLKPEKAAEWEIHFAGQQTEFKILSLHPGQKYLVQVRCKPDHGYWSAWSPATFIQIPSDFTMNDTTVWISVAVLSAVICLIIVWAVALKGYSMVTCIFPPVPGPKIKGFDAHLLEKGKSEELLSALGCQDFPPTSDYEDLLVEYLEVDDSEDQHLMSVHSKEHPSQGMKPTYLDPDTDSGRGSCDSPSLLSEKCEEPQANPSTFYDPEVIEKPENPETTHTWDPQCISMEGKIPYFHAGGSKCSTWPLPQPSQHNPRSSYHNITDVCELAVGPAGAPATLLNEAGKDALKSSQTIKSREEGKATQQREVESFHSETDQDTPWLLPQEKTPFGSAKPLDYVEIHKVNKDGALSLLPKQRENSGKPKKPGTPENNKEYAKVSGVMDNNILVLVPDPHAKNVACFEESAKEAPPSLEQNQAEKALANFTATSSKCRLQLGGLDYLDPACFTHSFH
# Experiment: FACS on HEK293/hPRLR cells
row,Binder,FACS Cell Binding (Fold Above Background)
1,B1,8 fold
2,B2,35 fold
3,B3,41 fold
4,B4,37 fold
5,B5,37 fold
6,B6,38 fold

# Biological target: T5, human PRLR on cells (endogenous on T47D, T47D#11, MCF7); introduced in HEK293/hPRLR/STAT5-Luc, 293/hPRLR, … (human, UniProt P16471 25-622)
# T5 construct: no tag is stated for these lines; also called prolactin receptor
# T5 sequence: T4 sequence
# Experiment: FACS on T47D cells
row,Binder,FACS Cell Binding (Fold Above Background)
1,B1,37 fold
2,B2,37 fold
3,B3,43 fold
4,B4,40 fold
5,B5,40 fold
6,B6,41 fold

# Biological target: T5, human PRLR on cells (endogenous on …)
# Experiment: cell-based or functional assay
Binder,Percent Blocking at 100 nM Antibody (STAT5-Luc reporter),"IC50 of Blocking 5 nM PRL [M] (STAT5-Luc reporter, HEK293/hPRLR/STAT5-Luc cells)"
B1,23%,
B2,100%,1.98e-10 M
B3,0%,
B4,100%,3.45e-10 M
B5,100%,2.7e-11 M
B6,100%,7.68e-10 M

# Biological target: T6, monkey macaca fascicularis PRLR construct with an HA tag on HEK293/mfPRLR cells (macaca fascicularis, UniProt A0A2K5WXK1 25-619)
# T6 construct: stably transfected into HEK293
# T6 sequence: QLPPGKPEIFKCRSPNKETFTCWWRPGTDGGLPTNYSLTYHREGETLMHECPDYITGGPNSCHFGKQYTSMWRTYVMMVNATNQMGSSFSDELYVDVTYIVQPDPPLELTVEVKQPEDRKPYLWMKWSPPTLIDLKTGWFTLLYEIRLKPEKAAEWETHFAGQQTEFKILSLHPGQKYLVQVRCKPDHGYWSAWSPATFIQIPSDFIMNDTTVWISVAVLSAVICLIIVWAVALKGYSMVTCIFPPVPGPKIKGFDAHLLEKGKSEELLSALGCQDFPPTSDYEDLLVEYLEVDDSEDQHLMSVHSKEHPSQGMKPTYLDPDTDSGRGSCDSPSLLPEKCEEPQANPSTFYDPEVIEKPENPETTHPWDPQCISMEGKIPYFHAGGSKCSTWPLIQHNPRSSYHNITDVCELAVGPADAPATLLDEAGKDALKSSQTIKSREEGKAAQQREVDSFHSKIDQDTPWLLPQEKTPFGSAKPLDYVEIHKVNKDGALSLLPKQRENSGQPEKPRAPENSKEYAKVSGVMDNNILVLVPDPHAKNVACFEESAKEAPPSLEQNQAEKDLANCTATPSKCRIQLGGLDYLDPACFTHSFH
# Experiment: FACS on HEK293/mfPRLR cells
row,Binder,FACS Cell Binding (Fold Above Background)
1,B1,29 fold
2,B2,30 fold
3,B3,32 fold
4,B4,26 fold
5,B5,26 fold
6,B6,28 fold
